Source: patent publication US20200181223A1

How the values were obtained:
[1] = biological target: human insulin receptor isoform B (IR-B) (human) (UniProt P06213); test: SPA competition with [125I]-labelled human insulin, plasma membranes of CHO cells overexpressing the IR
[2] = biological target: human insulin receptor isoform B (IR-B) (human) (UniProt P06213)
[3] = biological target: Glu(A14)Des(B30)-Insulin (human)
[4] = biological target: Glu(A14)Val(B16)Val(B25)Des(B30)-Insulin (human)
[5] = biological target: Glu(A14)Ile(B25)Des(B30)-Insulin (human)
[6] = biological target: Human Insulin (wild-type) (human)
[7] = biological target: Val(B25)Des(B30)-Insulin (human)
[8] = biological target: Glu(A14)Val(B25)Des(B30)-Insulin (human)
[9] = biological target: Glu(A14)Val(B16)Des(B30)-Insulin (human)
[10] = biological target: human insulin receptor isoform B (IR-B) (human) (UniProt P06213); test: SPA competition with [125I]-labelled human insulin, plasma membranes of CHO cells overexpressing the IR; 0 means below the detection limit
[11] = biological target: human insulin receptor isoform B (IR-B) (human) (UniProt P06213); test: SPA competition with [125I]-labelled human insulin, plasma membranes of CHO cells overexpressing the IR; category B (<20%) as defined in paragraph 522
[12] = biological target: Gly(A21)Trp(B16)His(B25)Des(B30)-Insulin (human)
Chain of Gly(A21)Trp(B16)His(B25)Des(B30)-Insulin (human) (chain, as listed by the source, chain 1 of 2): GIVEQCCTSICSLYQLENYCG
Chain of Gly(A21)Trp(B16)His(B25)Des(B30)-Insulin (human) (chain, as listed by the source, chain 2 of 2): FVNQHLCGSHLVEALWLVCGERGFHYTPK

[13] = biological target: Glu(A14)Gly(A21)Trp(B25)Des(B30)-Insulin (human)
Chain of Glu(A14)Gly(A21)Trp(B25)Des(B30)-Insulin (human) (chain, as listed by the source, chain 1 of 2): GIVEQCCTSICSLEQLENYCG
Chain of Glu(A14)Gly(A21)Trp(B25)Des(B30)-Insulin (human) (chain, as listed by the source, chain 2 of 2): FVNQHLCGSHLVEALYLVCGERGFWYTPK

[14] = biological target: Leu(B25)Des(B30)-Insulin (human)
Chain of Leu(B25)Des(B30)-Insulin (human) (chain, as listed by the source, chain 1 of 2): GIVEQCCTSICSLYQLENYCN
Chain of Leu(B25)Des(B30)-Insulin (human) (chain, as listed by the source, chain 2 of 2): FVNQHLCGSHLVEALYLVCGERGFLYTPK

[15] = biological target: Glu(A14)His(B16)Des(B30)-Insulin (human)
Chain of Glu(A14)His(B16)Des(B30)-Insulin (human) (chain, as listed by the source, chain 1 of 2): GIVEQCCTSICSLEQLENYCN
Chain of Glu(A14)His(B16)Des(B30)-Insulin (human) (chain, as listed by the source, chain 2 of 2): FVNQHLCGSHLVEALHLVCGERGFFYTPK

Chain of purified pepsin (from porcine stomach mucosa) in simulated gastric fluid (P00791 60-385): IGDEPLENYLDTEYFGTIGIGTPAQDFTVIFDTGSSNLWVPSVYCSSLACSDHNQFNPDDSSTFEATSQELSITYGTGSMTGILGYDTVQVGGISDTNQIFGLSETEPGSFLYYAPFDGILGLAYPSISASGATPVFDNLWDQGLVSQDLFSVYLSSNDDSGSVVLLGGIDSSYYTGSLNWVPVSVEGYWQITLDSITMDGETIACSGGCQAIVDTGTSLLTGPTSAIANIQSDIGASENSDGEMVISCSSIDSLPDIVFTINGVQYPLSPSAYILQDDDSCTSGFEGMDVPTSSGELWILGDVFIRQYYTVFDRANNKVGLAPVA
Chain of Gly(A21)Trp(B16)Des(B30)-Insulin (ligand) (chain): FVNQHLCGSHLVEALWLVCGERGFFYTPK
Chain of Gly(A21)Trp(B16)Trp(B25)Des(B30)-Insulin (ligand) (chain): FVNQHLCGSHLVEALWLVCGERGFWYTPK
Chain of Glu(A14)Gly(A21)Glu(B3)Ile(B16)Val(B25)Des(B30)-Insulin (ligand) (chain): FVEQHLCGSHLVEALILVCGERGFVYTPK
Chain of Glu(A14)Gly(A21)Glu(B3)Val(B16)Val(B25)Des(B30)-Insulin (ligand) (chain): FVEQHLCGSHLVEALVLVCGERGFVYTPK
Chain of Glu(A14)Gly(A21)Glu(B3)Val(B25)Des(B30)-Insulin (ligand) (chain): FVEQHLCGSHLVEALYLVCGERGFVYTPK
Chain of Glu(A14)Gly(A21)Glu(B3)Val(B16)Trp(B25)Des(B30)-Insulin (ligand) (chain): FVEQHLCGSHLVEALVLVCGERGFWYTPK
Chain of Glu(A14)Gly(A21)Glu(B3)Ile(B16)Trp(B25)Des(B30)-Insulin (ligand) (chain): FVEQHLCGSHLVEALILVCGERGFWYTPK
Chain of Glu(A14)Gly(A21)Val(B16)Trp(B25)Des(B30)-Insulin (ligand) (chain): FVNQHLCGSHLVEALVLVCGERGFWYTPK
Chain of Glu(A14)Glu(B3)Val(B16)Des(B30)-Insulin (ligand) (chain): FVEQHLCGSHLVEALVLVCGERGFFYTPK
Chain of Glu(A14)Ile(B16)Des(B30)-Insulin (ligand) (chain): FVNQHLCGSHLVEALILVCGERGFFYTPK
Chain of Glu(A14)Glu(B3)Ile(B16)Ile(B25)Des(B30)-Insulin (ligand) (chain): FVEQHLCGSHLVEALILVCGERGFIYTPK
Chain of Glu(A14)Val(B16)Val(B25)Des(B30)-Insulin (ligand) (chain): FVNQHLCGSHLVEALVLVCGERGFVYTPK
Chain of Glu(A14)Glu(B16)His(B25)Des(B30)-Insulin (ligand) (chain): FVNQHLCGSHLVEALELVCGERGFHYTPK
Chain of Glu(A14)His(B16)His(B25)Des(B30)-Insulin (ligand) (chain): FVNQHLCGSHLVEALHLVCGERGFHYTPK
Chain of Glu(A14)Leu(B16)Ala(B25)Des(B30)-Insulin (ligand) (chain): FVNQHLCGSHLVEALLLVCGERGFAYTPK
Chain of Glu(A14)Ile(B16)Val(B25)Des(B30)-Insulin (ligand) (chain): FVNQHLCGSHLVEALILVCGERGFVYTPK
Chain of Glu(A14)Val(B16)Ile(B25)Des(B30)-Insulin (ligand) (chain): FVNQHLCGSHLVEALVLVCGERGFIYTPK
Chain of Ala(B25)Des(B30)-Insulin (ligand) (chain): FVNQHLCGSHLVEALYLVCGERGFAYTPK
Chain of Val(B16)Des(B30)-Insulin (ligand) (chain): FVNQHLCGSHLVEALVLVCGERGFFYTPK
Chain of Glu(A14)His(B16)Ala(B25)Des(B30)-Insulin (ligand) (chain): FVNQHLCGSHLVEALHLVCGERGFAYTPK

Glu(A14)Gly(A21)Glu(B3)Val(B25)Des(B30)-Insulin (ligand)
Insulin-receptor binding affinity relative to human insulin (relative to human insulin) [1]: 0.02
autophosphorylation activity relative to human insulin (relative to human insulin) [2]: 0.03

α-Chymotrypsin (enzyme)
percent remaining insulin analog after 120 minutes with α-Chymotrypsin [3]: 35%
percent remaining insulin analog after 120 minutes with α-Chymotrypsin [4]: 34%
percent remaining insulin analog after 120 minutes with α-Chymotrypsin [5]: 99%
percent remaining insulin after 120 minutes with α-Chymotrypsin [6]: 5%
percent remaining insulin analog after 120 minutes with α-Chymotrypsin [7]: 31%
percent remaining insulin analog after 120 minutes with α-Chymotrypsin [8]: 40%
percent remaining insulin analog after 120 minutes with α-Chymotrypsin (Ala(B25)-Insulin (human)): 58%
percent remaining insulin analog after 120 minutes with α-Chymotrypsin [9]: 30%

Gly(A21)Trp(B16)Des(B30)-Insulin (ligand)
Insulin-receptor binding affinity relative to human insulin (relative to human insulin) [1]: 0.57
autophosphorylation activity relative to human insulin (relative to human insulin) [2]: 0.4

Glu(A14)Glu(B3)Val(B16)Des(B30)-Insulin (ligand)
Insulin-receptor binding affinity relative to human insulin (relative to human insulin) [1]: 0.4
autophosphorylation activity relative to human insulin (relative to human insulin) [2]: 0.28

Glu(A14)Glu(B3)Ile(B16)Ile(B25)Des(B30)-Insulin (ligand)
Insulin-receptor binding affinity relative to human insulin (relative to human insulin) [10]: 0
autophosphorylation activity relative to human insulin (relative to human insulin) [2]: 0.01

Glu(A14)Ile(B16)Val(B25)Des(B30)-Insulin (ligand)
Insulin-receptor binding affinity relative to human insulin (relative to human insulin) [10]: 0
autophosphorylation activity relative to human insulin (relative to human insulin) [2]: 0.04

Glu(A14)Gly(A21)Glu(B3)Ile(B16)Trp(B25)Des(B30)-Insulin (ligand)
Insulin-receptor binding affinity relative to human insulin (relative to human insulin) [1]: 0.12
autophosphorylation activity relative to human insulin (relative to human insulin) [2]: 0.13

Glu(A14)Ile(B16)Des(B30)-Insulin (ligand)
Insulin-receptor binding affinity relative to human insulin (relative to human insulin) [1]: 0.23
autophosphorylation activity relative to human insulin (relative to human insulin) [2]: 0.18

Insulin analog 41 (Glu(A14)His(B16)His(B25)Des(B30)-insulin) (ligand)
Insulin receptor B binding affinity relative to human insulin [11]: < 20%

Glu(A14)His(B16)Ala(B25)Des(B30)-Insulin (ligand)
autophosphorylation activity relative to human insulin (relative to human insulin) [2]: 0.11

purified pepsin (from porcine stomach mucosa) in simulated gastric fluid (from UniProt P00791) (enzyme)
percent remaining insulin analog after 30 minutes in gastric fluid [3]: 0%
percent remaining insulin analog after 30 minutes in gastric fluid [4]: 36%
percent remaining insulin analog after 30 minutes in gastric fluid [5]: 52%
percent remaining insulin after 30 minutes in gastric fluid [6]: 0%
percent remaining insulin analog after 30 minutes in gastric fluid [7]: 44%
percent remaining insulin analog after 30 minutes in gastric fluid [8]: 52%
percent remaining insulin analog after 30 minutes in gastric fluid (Ala(B25)-Insulin (human)): 30%
percent remaining insulin analog after 30 minutes in gastric fluid [9]: 0%

Glu(A14)Gly(A21)Glu(B3)Val(B16)Trp(B25)Des(B30)-Insulin (ligand)
Insulin-receptor binding affinity relative to human insulin (relative to human insulin) [1]: 0.21
autophosphorylation activity relative to human insulin (relative to human insulin) [2]: 0.19

Glu(A14)Val(B16)Val(B25)Des(B30)-Insulin (ligand)
Insulin-receptor binding affinity relative to human insulin (relative to human insulin) [10]: 0
autophosphorylation activity relative to human insulin (relative to human insulin) [2]: 0.03

Glu(A14)Leu(B16)Ala(B25)Des(B30)-Insulin (ligand)
Insulin-receptor binding affinity relative to human insulin (relative to human insulin) [1]: 0.01
autophosphorylation activity relative to human insulin (relative to human insulin) [2]: 0.04

Glu(A14)Glu(B3)Val(B16)Val(B25)Des(B30)-Insulin (ligand)
Insulin-receptor binding affinity relative to human insulin (relative to human insulin) [10]: 0
autophosphorylation activity relative to human insulin (relative to human insulin) [2]: 0.02

Ala(B25)Des(B30)-Insulin (ligand)
autophosphorylation activity relative to human insulin (relative to human insulin) [2]: 0.17

insulin degrading enzyme (IDE)
percent remaining insulin analog after 30 minutes with insulin degrading enzyme, IDE [12]: 41%
percent remaining insulin analog after 30 minutes with insulin degrading enzyme, IDE [13]: 80%
percent remaining insulin analog after 30 minutes with insulin degrading enzyme, IDE [3]: 81%
percent remaining insulin analog after 30 minutes with insulin degrading enzyme, IDE [4]: 86%
percent remaining insulin analog after 30 minutes with insulin degrading enzyme, IDE [5]: 77%
percent remaining insulin analog after 30 minutes with insulin degrading enzyme, IDE [14]: 12%
percent remaining insulin after 30 minutes with insulin degrading enzyme, IDE [6]: 38%
percent remaining insulin analog after 30 minutes with insulin degrading enzyme, IDE [15]: 88%
percent remaining insulin analog after 30 minutes with insulin degrading enzyme, IDE [7]: 11%
percent remaining insulin analog after 30 minutes with insulin degrading enzyme, IDE [8]: 86%
percent remaining insulin analog after 30 minutes with insulin degrading enzyme, IDE (Ala(B25)-Insulin (human)): 2%
percent remaining insulin analog after 30 minutes with insulin degrading enzyme, IDE [9]: 98%

Val(B16)Des(B30)-Insulin (ligand)
autophosphorylation activity relative to human insulin (relative to human insulin) [2]: 0.32

Gly(A21)Trp(B16)His(B25)Des(B30)-Insulin (ligand)
Insulin-receptor binding affinity relative to human insulin (relative to human insulin) [1]: 0.4
autophosphorylation activity relative to human insulin (relative to human insulin) [2]: 0.35

Glu(A14)Gly(A21)Glu(B3)Val(B16)Val(B25)Des(B30)-Insulin (ligand)
Insulin-receptor binding affinity relative to human insulin (relative to human insulin) [1]: 0.01
autophosphorylation activity relative to human insulin (relative to human insulin) [2]: 0.01

Glu(A14)Val(B16)Des(B30)-Insulin (ligand)
autophosphorylation activity relative to human insulin (relative to human insulin) [2]: 0.32

Glu(A14)His(B16)His(B25)Des(B30)-Insulin (ligand)
Insulin-receptor binding affinity relative to human insulin (relative to human insulin) [1]: 0.12
autophosphorylation activity relative to human insulin (relative to human insulin) [2]: 0.11

Glu(A14)Val(B16)Ile(B25)Des(B30)-Insulin (ligand)
Insulin-receptor binding affinity relative to human insulin (relative to human insulin) [10]: 0
autophosphorylation activity relative to human insulin (relative to human insulin) [2]: 0.01

Glu(A14)His(B16)His(B25)[16-[4-[[5-[2-[2-[2-[2-[2-(carboxymethyloxy)ethoxy]ethylamino]-2-oxoethoxy]ethoxy]-ethylcarbamoyl]pyrimidin-2-yl]sulfamoyl]phenoxy]hexadecanoic acid]Lys(B29)Des(B30)-insulin (ligand)
Insulin receptor B binding affinity relative to human insulin [11]: < 20%

Glu(A14)Gly(A21)Val(B16)Trp(B25)Des(B30)-Insulin (ligand)
Insulin-receptor binding affinity relative to human insulin (relative to human insulin) [1]: 0.17
autophosphorylation activity relative to human insulin (relative to human insulin) [2]: 0.23

Cathepsin D (enzyme)
percent remaining insulin analog after 30 minutes with Cathepsin D [3]: 0%
percent remaining insulin analog after 30 minutes with Cathepsin D [4]: 62%
percent remaining insulin analog after 30 minutes with Cathepsin D [5]: 20%
percent remaining insulin after 30 minutes with Cathepsin D [6]: 0%
percent remaining insulin analog after 30 minutes with Cathepsin D [7]: 43%
percent remaining insulin analog after 30 minutes with Cathepsin D [8]: 59%
percent remaining insulin analog after 30 minutes with Cathepsin D (Ala(B25)-Insulin (human)): 52%
percent remaining insulin analog after 30 minutes with Cathepsin D [9]: 0%

Glu(A14)Gly(A21)Trp(B16)Des(B30)-Insulin (ligand)
Insulin-receptor binding affinity relative to human insulin (relative to human insulin) [1]: 0.63
autophosphorylation activity relative to human insulin (relative to human insulin) [2]: 0.38

Glu(A14)Glu(B16)His(B25)Des(B30)-Insulin (ligand)
Insulin-receptor binding affinity relative to human insulin (relative to human insulin) [1]: 0.01
autophosphorylation activity relative to human insulin (relative to human insulin) [2]: 0.07

Glu(A14)His(B16)Des(B30)-Insulin (ligand)
Insulin-receptor binding affinity relative to human insulin (relative to human insulin) [1]: 0.36
autophosphorylation activity relative to human insulin (relative to human insulin) [2]: 0.29

Gly(A21)Trp(B16)Trp(B25)Des(B30)-Insulin (ligand)
Insulin-receptor binding affinity relative to human insulin (relative to human insulin) [1]: 0.43
autophosphorylation activity relative to human insulin (relative to human insulin) [2]: 0.38

Glu(A14)Gly(A21)Glu(B3)Ile(B16)Val(B25)Des(B30)-Insulin (ligand)
Insulin-receptor binding affinity relative to human insulin (relative to human insulin) [1]: 0.01
autophosphorylation activity relative to human insulin (relative to human insulin) [2]: 0.02
